± gives the half width of the 95% confidence interval.
How the values were obtained:
[1] = folding stability dG unfold from trypsin proteolysis; higher = more stable
Summary of the method: (§1)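 K50 was inferred by Bayesian fitting of sequencing counts obtained after protease digestion of designed mini-proteins. Unfolding free energy was derived by comparison with a sequence-predicted unfolded-state K50 and a shared folded-state K50, for each protease or both combined. The mini-proteins were under 80 residues, had no cysteine, were carried in a PA-tagged cDNA display construct, and were kept only if AlphaFold2 dimer inter-PAE exceeded 15.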

[2] = folding stability dG unfold (combined trypsin and chymotrypsin); higher = more stable
Summary of the method: as §1

[3] = folding stability dG unfold from chymotrypsin proteolysis; higher = more stable
Summary of the method: as §1

Sequence | folding stability dG unfold [1] [kcal/mol] | folding stability dG unfold [2] [kcal/mol] | folding stability dG unfold [3] [kcal/mol]
SADIKIDDIETQENPDGYEWYMITINFPDPKKFKEKLKKHGVNPEWDPNDPDQVEIWFPREDIQEILKLSAG [r14_777_TrROS] | 0.328 ± 0.21 | 0.665 ± 0.36 | 0.884 ± 0.28
SAGGASFSLSEGYDPSLGKTFTRETEAPEVPVPPVTVVPLSEIGRLKAEGVPPSWTVDPETGTVTVTSAGGS [r16_194_JUSTAS] | -0.647 ± 0.19 | 0.258 ± 0.059 | 0.564 ± 0.072
SAGGSAMVDKTMTEEEARAFAEASGDPRVTVEPVENPNNDPNAPKKWRITVDGSGTPGSTILFTSPSAGGSA [r15_428_JUSTAS] | -0.398 ± 0.12 | -0.55 ± 0.089 | -0.928 ± 0.28
SAMRMISFPIESPEELEDELEEKFGVEVETFPDGMRMIKFRRNNEPVIIMIPPNNGHITIIPPEDMDKMSAG [r14_402_TrROS] | 0.685 ± 0.19 | 1.01 ± 0.15 | 1.28 ± 0.21
SAGGSAGGSAGGKKIIKVPLKNAEKIKKELKKKYKIKKVKIEKNKDGSKYIYIEVEKPKSAGGSAGGSAGGS [r10_1219_TrROS_Hall] | 0.939 ± 0.071 | 1.5 ± 0.23 | 1.69 ± 0.16
SAMKITDVTVERNPDNGWYEVMVTFEFDNGPVTVKIWMPRDGNMPIDVYDMGNGEPKGEIWIPADQIKFSAG [r14_608_TrROS] | 0.893 ± 0.022 | 1.15 ± 0.075 | 1.35 ± 0.1
SAGGSMGSKKVGEIELEVEIGDEKVKVKVTLYETESPDDSVSLTLDVDVEHPNGKKISKELFEKLFSAGGSA [r2_363_TrMRF] | 1.15 ± 0.064 | 1.84 ± 0.15 | 2.14 ± 0.033
SAGGPKLFVEEDPVEDGVVVVVETNADPVALLKALEKLFGRPVKDVRFERLPDGRLIAVARIPKDALSAGGS [r16_605_TrMRF] | 2.05 ± 0.043 | 2.47 ± 0.045 | 2.676 ± 0.016
SAGGSAGGSAGGKLILKVKVEVVSVKVEPLPGVPGEVKVEVEVKVEVELIEVSEEELKSSAGGSAGGSAGGS [r10_654_TrROS_Hall] | 1.88 ± 0.26 | 2.19 ± 0.18 | 2.34 ± 0.098
SAGGSAGGSAGMELTVKVPPDTTPEEVKEKIEKELGLKVKSISVSSFPDGTRTVTITIGPSAGGSAGGSAGG [r17_222_JUSTAS] | 2.45 ± 0.27 | 2.45 ± 0.21 | 2.45 ± 0.14
SAGGSAGGSAGGGTVTLEIELKVKPGEKIKDLATGEEFEVKEGETVRIRITLPLPPAPEESAGGSAGGSAGG [r7_234_TrROS_Hall] | 0.963 ± 0.068 | 1.2 ± 0.17 | 1.11 ± 0.078
SAGGSAGGSAGPNWKKYTFTIFFPGYPFRVEIERPKDGPNAPLAIKIEDPNGKPMETFPISAGGSAGGSAGG [r11_223_TrROS] | 2.71 ± 0.11 | 2.67 ± 0.12 | 2.61 ± 0.082
SAGMGIVEALRRELEAAGLDVRVSATVEPLPDLGYVLITVHVEVRNENGEWVPLGPLTILLPVEEAERLSAG [r5_413_TrMRF] | 2.9 ± 0.12 | 2.55 ± 0.13 | 2.43 ± 0.07
SAGGSAGGSGMMFELAFREIKYSPNDSVTIKAELPDGSSITIPTKKGEIKFKLPENGYVKVLGSAGGSAGGS [r12_746_JUSTAS] | -0.281 ± 0.34 | -0.262 ± 0.2 | -0.514 ± 0.55
SAGGSAGGSAGSYTVTPITLKLPDGTEVDAVLTTDPAGNVTLTLTGDSPLSTLTFPASTLSAGGSAGGSAGG [r11_327_JUSTAS] | 0.119 ± 0.026 | 1.18 ± 0.049 | 1.6 ± 0.039
SAGGSAKMTLIIKVSPEMTKEELEELARKLAEELNVKVEIEYDEETGLATVTIEKDGKKIEIIVERSAGGSA [r15_168_TrROS_Hall] | 1.98 ± 0.083 | 2.49 ± 0.12 | 2.74 ± 0.094
SAGGSAGGSMETVVTVPLPDGRTLTITRYPDGTVTVTYPDGTPVATRPVAPDTSDEAVVAALASAGGSAGGS [r12_990_JUSTAS] | 0.522 ± 0.016 | 1.54 ± 0.037 | 1.83 ± 0.023
PPPDVPVETETKTSTSTLPDGSRLTTTTTTTRAPNGYYYDTTSVTTTVAPDGTVTTTSTSTTKGPLPAALLS [r1_129_JUSTAS] | 1.81 ± 0.12 | 1.5 ± 0.27 | 1.51 ± 0.072
SAGGSAGGSAGGMIKTEDGYEVEIKIEVEEIPLPEGMSEEEKEKLKKIRIIRIEIKVTKKSAGGSAGGSAGG [r7_324_TrROS_Hall] | 1.67 ± 0.12 | 2.26 ± 0.36 | 2.5 ± 0.33
SAGGSAGGSAGGLLKLKLKLKYEFTFKDENGNTYKVEKELTLVLELPPINETGKKNLVLSAGGSAGGSAGGS [r10_168_TrMRF] | 2.07 ± 0.036 | 3.12 ± 0.13 | 3.66 ± 0.063
SAGGKTISIEFYMPPGEPPPSIEEIAKELFPGYKDIKIKNIEIEDVEPDPDNGMKYVRVSFTIEVEPPSAGG [r13_10_TrROS] | 3.25 ± 0.27 | 3.39 ± 0.25 | 3.42 ± 0.23

Sequence | folding stability dG unfold [1] [kcal/mol] | folding stability dG unfold [2] [kcal/mol] | folding stability dG unfold [3] [kcal/mol]
SAGGSAGGSAGGSSLASDPTVPPDEPRTVTVLEPEPGGRLRVVTYEETPAGRRPVSALLSAGGSAGGSAGGS [r10_288_JUSTAS] | -0.782 ± 0.95 | 0.336 ± 0.21 | 1.09 ± 0.26
SMPGVRVRLYTVRVKTPEGGELTAPIAVPAELFTEEEIRELVREAFPDAEDVEIEPAVLELPPAPGLLTASA [r9_841_TrMRF] | 1.39 ± 0.034 | 1.43 ± 0.079 | 1.31 ± 0.1
SAGGSAGGMIYKFTYPKGEPPLLFTYDPSTGKVTVTEPKTGKPLGTVDLSLEEAVKAGARIEPVSAGGSAGG [r6_832_JUSTAS] | 0.44 ± 0.073 | 0.84 ± 0.057 | 0.96 ± 0.085
SAGGGPVTVTVTFKPPSTGLTSTVTLPFPNVSSYEEAKERAEELAKEAGGPIETITFTDPATGKAHPLSAGG [r13_771_JUSTAS] | 0.449 ± 0.068 | 0.646 ± 0.23 | 0.213 ± 0.27
SAGGLPPEIKVEISFTPDPATGKWRGTVTAFDPVTGKTVTVPVTSDTPEELRARLEAAAAAVAAALASAGGS [r8_480_JUSTAS] | 3.03 ± 0.098 | 4.08 ± 0.14 | 4.36 ± 0.12
SAGGSAGGKYQEFEYMIMFPDGGMFRVKIEYSPNPGQVKIKIEFPGGEREITIPPGAPITIMPMSAGGSAGG [r6_927_TrROS] | 3.17 ± 0.23 | 2.74 ± 0.23 | 2.41 ± 0.054
SAGGSAGGSASVTTTTTPLPGDRTLTTTTYPDGTVKVTTYTVDTATGTVTSTSTTLSPATLTSAGGSAGGSA [r18_325_JUSTAS] | 1.15 ± 0.042 | 0.856 ± 0.082 | 0.254 ± 0.12
SAGGPNFIVKIRIPMRKYERENDPGGKPKWEPVEPQRVEITIIFKGPPEQAKQIREELENHGLEVEPISAGG [r13_452_TrROS] | 1.65 ± 0.077 | 2.05 ± 0.18 | 2.44 ± 0.098
SAGGMPEVKIKVEITEIKVDKETGKTVTIRIKSVEITTADGRKYRVEKEIRIRPDGSIEVKVKVEELPSAGG [r13_917_TrROS_Hall] | 2.75 ± 0.089 | 3.75 ± 0.12 | 4.21 ± 0.14
SAGGSAGGSAGGKTLTLEIEINGKLYKIEFSGDSIKITEIKVKPKPKKKEFFSEEELKKKSAGGSAGGSAGG [r7_748_TrROS_Hall] | 0.563 ± 0.089 | 1.87 ± 0.31 | 2.55 ± 0.13
SAMPIESVEFHPEEGVITLRFRAPAHPDAEKFEIEVVVDGAEAGEIEVEVDPETNEVRALVRVKIPKGASAG [r14_244_TrMRF] | 2.71 ± 0.1 | 3.7 ± 0.25 | 4.23 ± 0.059
KIPITIEEDPEDKMYELRVPDGMPIQIQRSKDGYRVSIWNPDNGKPREIPITKKDLKDLLSNPGFWIEIYKS [r1_18_TrROS] | 1.64 ± 0.062 | 1.77 ± 0.11 | 1.56 ± 0.078
SAGGSAGGSSMLTITKTYTLPPEEIKKIEGKPGVLKVEPFVTPEGKLVVKVEIRLEIGPEKLLLSAGGSAGG [r6_155_JUSTAS] | 0.738 ± 0.11 | 0.914 ± 0.11 | 1.11 ± 0.22
SMYYYGKFTFTNPTGGPTIGDVYIITKSKEEAEALAKEEASKKNVKVEIEIKEIPESEYENPEKVKELLSSA [r9_864_JUSTAS] | 0.285 ± 0.2 | 0.788 ± 0.37 | 1.02 ± 0.19
SAGGSAGGSAGGSFDIEQERNPENGYHRVTIDFPNGPPVEIWMPPGSTLEQIEDLAKQFSAGGSAGGSAGGS [r4_205_TrROS] | 1.07 ± 0.036 | 0.878 ± 0.12 | 0.658 ± 0.1
SAGGSAGGSAGGGELKELLKKNPGPLLLERPENTVSLILYDPKTGTYTVLTFSPTEPIPLSAGGSAGGSAGG [r7_84_JUSTAS] | 1.27 ± 0.056 | 1.52 ± 0.14 | 1.69 ± 0.11
SAGGSAWMTLEEFIKEAAKNFPPGREKEIWIRHPGYVFKIDIRVTGPGQVKIKIDKIVPFPDGEPISAGGSA [r15_150_TrROS] | 2.12 ± 0.067 | 2.55 ± 0.11 | 2.88 ± 0.046
SAGGSAGGSAGGKKVYKVPSLEEALELAKKNKGKTVEIEVDGKKYKFNKNGKIVEIEPVKSAGGSAGGSAGG [r7_532_TrROS_Hall] | 1.36 ± 0.084 | 2.14 ± 0.12 | 2.38 ± 0.075
SAKIEIIKKDGEYYLRITLENGKKKTIKLKGIKKIEIKNGKIYIYNKKTGKKIILKNAKIKKIEIEKVPSAG [r14_83_TrROS_Hall] | 3.1 ± 0.18 | 3.87 ± 0.41 | 4.6 ± 0.18
SAGGSASVTRMIQIPPGDPNMSIEEAIEKIKIYLPNGKPVTIEIDRIWPDPNRYFFMITIKDGKPVSAGGSA [r15_331_TrROS] | 1.21 ± 0.088 | 1.86 ± 0.15 | 2.28 ± 0.13
SAGGLIEKLKELGFEIVSVEEREETLPNGKKVRTVKITVKLPNGELVKIEVRVLPNGEVIIKIEVKKPSAGG [r13_818_TrROS_Hall] | 3.72 ± 0.15 | 3.55 ± 0.27 | 3.17 ± 0.89

Reference: the supplement of paper PMC12764529
